Laboratory results published in PMC6145873.

Legend:
[1] = biological target: Thermus thermophilus PilF type IVa pilus assembly ATPase, full length (Thermus thermophilus HB8); assay: cryo-EM structure; single particle reconstructions of full length TtPilF as apoprotein and with 1 mM AMPPNP; ~200 μg/ml; 25 mM HEPES pH 7.5, 150 mM NaCl, 5 mM MgCl2, 5% glycerol; C2 symmetry applied
[2] = biological target: TtPilFc, C-terminal tryptic fragment of Thermus thermophilus PilF (N2, CTD and Zn-binding domains) (Thermus thermophilus HB8); assay: crystal structure; TtPilFc with bound ATP/Mg2+, space group C2, 2.44 Å; crystals at 20 °C in 0.2 M sodium bromide, 0.1 M Bis-Tris propane pH 6.5, 20% PEG 3350

| Substance | stoichiometry N [1] | stoichiometry N [2] |
| --- | --- | --- |
| Thermus thermophilus PilF type IVa pilus assembly ATPase, full length (enzyme) | 6 |  |
| TtPilFc, C-terminal tryptic fragment of Thermus thermophilus PilF (N2, CTD and Zn-binding domains) (domain or fragment) |  | 6 |
